First the molecules themselves.
B1: human ephrin-A5 receptor-binding domain (domain or fragment)
chain: KAVADRYAVYWNSSNPRFQRGDYHIDVCINDYLDVFCPHYEDSVPEDKTERYVLYMVNFDGYSACDHTSKGFKRWECNRPHSPNGPLKFSEKFQLFTPFSLGFEFRPGREYFYISSAIPDNGRRSCLKLKVFVRPTNSCMK
modifications: deglycosylated with PNGase F
notes: also called ephrin-A5 ligand
B2: human EphA3 ligand-binding domain (domain or fragment)
chain: EVNLLDSKTIQGELGWISYPSHGWEEISGVDEHYTPIRTYQVCNVMDHSQNNWLRTNWVPRNSAQKIYVELKFTLRDCNSIPLVLGTCKETFNLYYMESDDDHGVKFREHQFTKIDTIAADESFTQMDLGDRILKLNTEIREVGPVNKKGFYLAFQDVGACVALVSVRVYFK
notes: also called EphA3 LBD; EphA3 receptor; not shown: GST, N-terminal, cleaved; 10xHis, N-terminal, cleaved

For assay [1], the target named is B2. Nature of the assay: ITC. The conditions noted are these: both partners purified.
Assay [2] deals with B1. In words: ITC. The conditions noted are these: both partners purified.

Regarding B1, the dissociation constant (Kd) in assay [1] was found to be 9 nM.

B2 returned a dH in assay [2] of -2.15 kcal/mol.

By Kd is commonly meant the free concentration of one partner at which half of the binding sites on the other are occupied at equilibrium, for simple one-to-one binding. Low readings indicate a tighter complex, high ones a looser complex.

The record behind these values is PMC4439037, “Distinctive Structure of the EphA3/Ephrin-A5 Complex Reveals a Dual Mode of Eph Receptor Interaction for Ephrin-A5” (PLoS ONE, 2015).
